{"source": "paper PMC8809517", "about": "“Cofactor-independent RNA editing by a synthetic S-type PPR protein”", "binders": {"B1": {"name": "IR-rpoA-U (ssRNA)", "RNA": "AUUAUACGUGA"}, "B2": {"name": "IR-rpoA-A (ssRNA)", "RNA": "AUUAAACGUGA"}, "B3": {"name": "Cy5-rpoA-G (ssRNA)", "RNA": "AUUAGACGUGA"}, "B4": {"name": "Cy5-rpoA (ssRNA)", "RNA": "AUUACACGUGA"}}, "assay_in_all_cases": "high-throughput RNA pulldown from lysate on Ni-NTA beads; HRP: 50 mM Tris pH 8, 150 mM NaCl, 1 mM beta-mercaptoethanol, 50 ug/ml BSA, 3 ug/ml yeast RNA, 0.5% heparin; ITC and FP: Tris pH 8, 200 mM KCl, 5% glycerol; MST: 50 mM Tris pH 8, 200 mM NaCl, 1 mM DTT, BSA, heparin, 0.05% Tween 20", "conditions_in_all_cases": "tags: N-terminal His-eGFP", "key": {"[1]": {"target": "T1, GFP-9S library array, motif 4 ND N98D;D124L (synthetic construct, N98D;D124L)", "T1 chain": "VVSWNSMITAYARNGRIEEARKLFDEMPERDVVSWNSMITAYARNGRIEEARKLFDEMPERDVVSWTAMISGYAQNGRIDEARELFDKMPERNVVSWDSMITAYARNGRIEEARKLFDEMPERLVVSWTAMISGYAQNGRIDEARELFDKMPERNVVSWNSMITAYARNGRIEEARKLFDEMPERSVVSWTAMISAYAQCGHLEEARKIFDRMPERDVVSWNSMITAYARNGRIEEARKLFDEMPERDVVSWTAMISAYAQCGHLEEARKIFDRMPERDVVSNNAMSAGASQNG"}, "[2]": {"target": "T2, GFP-9S library array, motif 4 ND N98G;D124V (synthetic construct, N98G;D124V)", "T2 chain": "T1 chain with D98G, L124V"}, "[3]": {"target": "T3, GFP-9S library array, motif 4 ND N98P;D124W (synthetic construct, N98P;D124W)", "T3 chain": "T1 chain with D98P, L124W"}, "[4]": {"target": "T4, GFP-9S library array, motif 4 ND N98R;D124T (synthetic construct, N98R;D124T)", "T4 chain": "T1 chain with D98R, L124T"}, "[5]": {"target": "T5, GFP-9S library array, motif 4 ND N98Y;D124L (synthetic construct, N98Y;D124L)", "T5 chain": "T1 chain with D98Y"}}, "note": "Numbering of substitutions follows the chain as printed."}
{"binder": "B1", "values": [{"measurement": "Kd", "setting": "[1]; label: 5' IRDye 800CW", "result": 408, "unit": "nM"}, {"measurement": "Kd", "setting": "[2]; label: 5' IRDye 800CW", "result": 234, "unit": "nM"}, {"measurement": "Kd", "setting": "[3]; label: 5' IRDye 800CW", "result": 81.9, "unit": "nM"}, {"measurement": "Kd", "setting": "[4]; label: 5' IRDye 800CW", "result": 85.9, "unit": "nM"}, {"measurement": "Kd", "setting": "[5]; label: 5' IRDye 800CW", "result": 199, "unit": "nM"}]}
{"binder": "B2", "values": [{"measurement": "Kd", "setting": "[1]; label: 5' IRDye 800CW", "result": 90.5, "unit": "nM"}, {"measurement": "Kd", "setting": "[2]; label: 5' IRDye 800CW", "result": 313, "unit": "nM"}, {"measurement": "Kd", "setting": "[3]; label: 5' IRDye 800CW", "result": 44.6, "unit": "nM"}, {"measurement": "Kd", "setting": "[4]; label: 5' IRDye 800CW", "result": 173, "unit": "nM"}, {"measurement": "Kd", "setting": "[5]; label: 5' IRDye 800CW", "result": 162, "unit": "nM"}]}
{"binder": "B3", "values": [{"measurement": "Kd", "setting": "[1]; label: 5' Cy5", "result": 52.3, "unit": "nM"}, {"measurement": "Kd", "setting": "[2]; label: 5' Cy5", "result": 118, "unit": "nM"}, {"measurement": "Kd", "setting": "[3]; label: 5' Cy5", "result": 77.7, "unit": "nM"}, {"measurement": "Kd", "setting": "[4]; label: 5' Cy5", "result": 98.5, "unit": "nM"}, {"measurement": "Kd", "setting": "[5]; label: 5' Cy5", "result": 74.6, "unit": "nM"}]}
{"binder": "B4", "values": [{"measurement": "Kd", "setting": "[1]; label: 5' Cy5", "result": 133, "unit": "nM"}, {"measurement": "Kd", "setting": "[2]; label: 5' Cy5", "result": 119, "unit": "nM"}, {"measurement": "Kd", "setting": "[3]; label: 5' Cy5", "result": 69.3, "unit": "nM"}, {"measurement": "Kd", "setting": "[4]; label: 5' Cy5", "result": 74.7, "unit": "nM"}, {"measurement": "Kd", "setting": "[5]; label: 5' Cy5", "result": 89.7, "unit": "nM"}]}
